The subject of the data set is Escherichia coli TOP10. In words: shrunken log2 fold change of peptide-encoding DNA abundance (4.5 h post-induction vs induction); higher = less antimicrobial activity (less host growth inhibition). To be noted: time post-induction: 4.5 h; library: site-saturation at positions 5, 18, 19, 20.

Data on 125 sequences can be found in the supplement of paper PMC9112550, “Optimization of the antimicrobial peptide Bac7 by deep mutational scanning” (BMC Biology, 2022).
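Also: peptides expressed intracellularly from a pBAD plasmid library in pooled LB shake-flask culture, induced with 0.3% L-arabinose, DNA abundance read by NGS, three biological replicates, DESeq2 with apeglm shrinkage.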

Turning to RRIRTRPPRLPRPRPRPWRVPRP, the “shrunken log2 fold change” value is -0.00468. The figure for RRIRDRPPRLPRPRPRPNSNPRP is -0.573.

Turning to RRIRGRPPRLPRPRPRPCQCPRP, the “shrunken log2 fold change” value turned out to be 0.268. The figure for RRIRSRPPRLPRPRPRPKEGPRP is -0.0287; for RRIRERPPRLPRPRPRPEQTPRP it is 0.111; for RRIRHRPPRLPRPRPRPNKRPRP it is -0.198. The value for RRIRFRPPRLPRPRPRPEPAPRP was 0.669; that for RRIRWRPPRLPRPRPRPWYEPRP was 0.0012; that for RRIRGRPPRLPRPRPRPNNMPRP was -0.317. For the sequence RRIRNRPPRLPRPRPRPLKLPRP, the “shrunken log2 fold change” value is -0.207.

In the case of RRIRQRPPRLPRPRPRPHQFPRP, the “shrunken log2 fold change” value came to 0.0486. The value for RRIRFRPPRLPRPRPRPSKEPRP was 1.3; that for RRIRARPPRLPRPRPRPSDSPRP was -0.197. Take RRIRWRPPRLPRPRPRPYQSPRP: the “shrunken log2 fold change” value was -0.583. As for RRIRMRPPRLPRPRPRPRRYPRP, the “shrunken log2 fold change” value is 1.15.

As to RRIRHRPPRLPRPRPRPGQQPRP, the “shrunken log2 fold change” value was -0.028. The value for RRIRLRPPRLPRPRPRPFPHPRP was -0.0537.

Consider RRIRLRPPRLPRPRPRPFLQPRP, for which the “shrunken log2 fold change” value was -0.102. The value for RRIRYRPPRLPRPRPRPENMPRP was -0.134. Turning to RRIRARPPRLPRPRPRPHFVPRP, the “shrunken log2 fold change” value was found to be 0.0302. The figure for RRIRDRPPRLPRPRPRPPRIPRP is 0.185; for RRIRWRPPRLPRPRPRPIQYPRP it is -0.101; for RRIRKRPPRLPRPRPRPIEWPRP it is 0.404.

In the case of RRIRQRPPRLPRPRPRPNTTPRP, the “shrunken log2 fold change” value turned out to be 0.15.

Regarding RRIRTRPPRLPRPRPRPGSHPRP, the “shrunken log2 fold change” value is -0.336. The value for RRIRPRPPRLPRPRPRPSHLPRP was -0.168; that for RRIRLRPPRLPRPRPRPCAPPRP was 0.00325. The figure for RRIRSRPPRLPRPRPRPTYLPRP is -0.399; for RRIRQRPPRLPRPRPRPIERPRP it is -0.0353. The value for RRIRGRPPRLPRPRPRPWPMPRP was 0.31; that for RRIRTRPPRLPRPRPRPGPDPRP was -0.228. Consider RRIRERPPRLPRPRPRPKNFPRP, for which the “shrunken log2 fold change” value is -0.311. The value for RRIRGRPPRLPRPRPRPLEYPRP was 0.123. The figure for RRIRRRPPRLPRPRPRPIDLPRP is -0.115. The value for RRIRTRPPRLPRPRPRPDYFPRP was -0.153; that for RRIRDRPPRLPRPRPRPFAEPRP was 0.242. For RRIRARPPRLPRPRPRPPTQPRP, the “shrunken log2 fold change” value stood at 0.718. The value for RRIRIRPPRLPRPRPRPTINPRP was -0.65; that for RRIRGRPPRLPRPRPRPDGMPRP was 0.86; that for RRIRNRPPRLPRPRPRPPLQPRP was 0.213. The value for RRIRSRPPRLPRPRPRPPNVPRP was 0.0837. The figure for RRIRCRPPRLPRPRPRPLLIPRP is -0.4; for RRIRKRPPRLPRPRPRPIEPPRP it is 0.0245; for RRIRARPPRLPRPRPRPSRQPRP it is 0.373. As to RRIRCRPPRLPRPRPRPRYNPRP, the “shrunken log2 fold change” value is -0.465. The value for RRIRSRPPRLPRPRPRPWVAPRP was 0.0561; that for RRIRCRPPRLPRPRPRPKCTPRP was -0.0914. The value for RRIRDRPPRLPRPRPRPEFTPRP was 0.174. The value for RRIRFRPPRLPRPRPRPKRGPRP was 0.0365. In the case of RRIRKRPPRLPRPRPRPNCNPRP, the “shrunken log2 fold change” value came out at 0.00173. For RRIRMRPPRLPRPRPRPAKIPRP, the “shrunken log2 fold change” value amounted to 0.211. The figure for RRIRKRPPRLPRPRPRPSCQPRP is 0.176. For the sequence RRIRHRPPRLPRPRPRPPRYPRP, the “shrunken log2 fold change” value came to 0.0399. The value for RRIRGRPPRLPRPRPRPYILPRP was -0.614; that for RRIRHRPPRLPRPRPRPVWQPRP was 0.0177.

For RRIRPRPPRLPRPRPRPRTLPRP, the “shrunken log2 fold change” value amounted to 0.0704. The value for RRIRWRPPRLPRPRPRPEFLPRP was 0.374; that for RRIRSRPPRLPRPRPRPRDCPRP was 0.686; that for RRIRDRPPRLPRPRPRPHEMPRP was -0.0853. For RRIRKRPPRLPRPRPRPDKLPRP, the “shrunken log2 fold change” value was found to be 0.367.

RRIRMRPPRLPRPRPRPYDEPRP: the “shrunken log2 fold change” value came out at 0.0491. The value for RRIRVRPPRLPRPRPRPRDQPRP was -0.0604; that for RRIRFRPPRLPRPRPRPHNIPRP was -0.501; that for RRIRPRPPRLPRPRPRPKMIPRP was -0.0706. The value for RRIRLRPPRLPRPRPRPIFTPRP was -0.206; that for RRIRLRPPRLPRPRPRPCETPRP was -0.155. The value for RRIRFRPPRLPRPRPRPDFSPRP was -0.259. In the case of RRIRGRPPRLPRPRPRPICRPRP, the “shrunken log2 fold change” value is -0.0289. The value for RRIRYRPPRLPRPRPRPDHMPRP was -0.552; that for RRIRNRPPRLPRPRPRPCMAPRP was -0.346; that for RRIRCRPPRLPRPRPRPVHEPRP was -0.073.

Consider RRIRMRPPRLPRPRPRPWECPRP, for which the “shrunken log2 fold change” value was determined as 1.1.

Consider RRIRLRPPRLPRPRPRPMCTPRP, for which the “shrunken log2 fold change” value is -0.0698. The figure for RRIRLRPPRLPRPRPRPDLNPRP is -1.09; for RRIRYRPPRLPRPRPRPYWYPRP it is -0.322. The figure for RRIRERPPRLPRPRPRPMSIPRP is -0.239. The figure for RRIRFRPPRLPRPRPRPIGRPRP is 0.00988. Turning to RRIRERPPRLPRPRPRPGEEPRP, the “shrunken log2 fold change” value came to 0.175.

Turning to RRIRVRPPRLPRPRPRPGNQPRP, the “shrunken log2 fold change” value was -0.284.

In the case of RRIRIRPPRLPRPRPRPKHIPRP, the “shrunken log2 fold change” value was -0.765.

For RRIRVRPPRLPRPRPRPKIIPRP, the “shrunken log2 fold change” value is -0.645. The value for RRIRKRPPRLPRPRPRPIVLPRP was -0.299; that for RRIRVRPPRLPRPRPRPWQAPRP was -0.0138; that for RRIRQRPPRLPRPRPRPIPQPRP was -0.0321.

For RRIRTRPPRLPRPRPRPSKWPRP, the “shrunken log2 fold change” value is -0.0672.

On to RRIRRRPPRLPRPRPRPIWMPRP, for which the “shrunken log2 fold change” value is 0.0986. The value for RRIRPRPPRLPRPRPRPECDPRP was 0.392; that for RRIRERPPRLPRPRPRPESTPRP was 0.176. Regarding RRIRMRPPRLPRPRPRPCDWPRP, the “shrunken log2 fold change” value worked out at 0.179. The figure for RRIRWRPPRLPRPRPRPQGVPRP is 0.198; for RRIRWRPPRLPRPRPRPNAWPRP it is 0.826.

In the case of RRIRRRPPRLPRPRPRPIQAPRP, the “shrunken log2 fold change” value is -0.0046. The figure for RRIRFRPPRLPRPRPRPVCCPRP is -0.0027; for RRIRFRPPRLPRPRPRPEHVPRP it is -0.0205; for RRIRDRPPRLPRPRPRPHKIPRP it is -0.524.

For the sequence RRIRERPPRLPRPRPRPECRPRP, the “shrunken log2 fold change” value was found to be 0.0354. As to RRIRFRPPRLPRPRPRPGEDPRP, the “shrunken log2 fold change” value is -0.224.

Consider RRIRNRPPRLPRPRPRPKLSPRP, for which the “shrunken log2 fold change” value was 0.0328. The value for RRIRMRPPRLPRPRPRPIKSPRP was -0.0237; that for RRIRPRPPRLPRPRPRPGPVPRP was 0.258. The figure for RRIRARPPRLPRPRPRPVTMPRP is 0.102; for RRIRHRPPRLPRPRPRPSHDPRP it is -0.0756. The value for RRIRYRPPRLPRPRPRPRNDPRP was -0.205; that for RRIRIRPPRLPRPRPRPHQWPRP was -0.246.

Regarding RRIRWRPPRLPRPRPRPPMCPRP, the “shrunken log2 fold change” value stood at 0.252. The value for RRIRFRPPRLPRPRPRPGMHPRP was -0.24.

Take RRIRQRPPRLPRPRPRPRMQPRP: the “shrunken log2 fold change” value is -0.0113. The value for RRIRSRPPRLPRPRPRPDWVPRP was 0.305; that for RRIRTRPPRLPRPRPRPAPEPRP was 0.24; that for RRIRGRPPRLPRPRPRPEQFPRP was 0.846.

On to RRIRSRPPRLPRPRPRPKKTPRP, for which the “shrunken log2 fold change” value was -0.356. As for RRIRYRPPRLPRPRPRPMSCPRP, the “shrunken log2 fold change” value was -0.115. The figure for RRIRCRPPRLPRPRPRPNQSPRP is 2.47; for RRIRQRPPRLPRPRPRPATEPRP it is -0.037; for RRIRKRPPRLPRPRPRPLCWPRP it is 0.52. Consider RRIRRRPPRLPRPRPRPQGTPRP, for which the “shrunken log2 fold change” value stood at 0.294. The figure for RRIRFRPPRLPRPRPRPCMPPRP is -0.35.

As for RRIRCRPPRLPRPRPRPRWDPRP, the “shrunken log2 fold change” value is -0.128. The value for RRIRMRPPRLPRPRPRPHHEPRP was -0.00212. Consider RRIRLRPPRLPRPRPRPEYLPRP, for which the “shrunken log2 fold change” value was -0.0639.

Take RRIRLRPPRLPRPRPRPVKCPRP: the “shrunken log2 fold change” value is -0.122. The value for RRIRHRPPRLPRPRPRPEIYPRP was -0.413. The figure for RRIRDRPPRLPRPRPRPVCWPRP is 0.747; for RRIRGRPPRLPRPRPRPNMFPRP it is 0.351. Turning to RRIRARPPRLPRPRPRPKEQPRP, the “shrunken log2 fold change” value is -0.111.
